In US20190016764A1 (KYUNGPOOK NATIONAL UNIVERSITY INDUSTRY ACADEMIC COOPERATION …, published 2019):
No end group written: not given here.

T1: EPCR in mouse vena cava (mouse, UniProt Q64695 18-242)
T1 construct: whole, on cells; Endogenous receptor in tissue sections of C57BL/6 mice; also called EPCR (mouse, in vivo)
T1 sequence (looked up): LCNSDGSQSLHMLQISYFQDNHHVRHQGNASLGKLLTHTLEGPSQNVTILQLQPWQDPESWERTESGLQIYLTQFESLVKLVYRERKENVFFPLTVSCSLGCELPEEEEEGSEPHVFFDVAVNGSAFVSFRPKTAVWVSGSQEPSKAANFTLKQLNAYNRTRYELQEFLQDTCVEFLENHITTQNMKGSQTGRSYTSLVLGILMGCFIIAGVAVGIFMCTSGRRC

T2: TFMG (TRAP-ferritin monomer fragment-linker-PC-Gla fusion polypeptide)
T2 chain: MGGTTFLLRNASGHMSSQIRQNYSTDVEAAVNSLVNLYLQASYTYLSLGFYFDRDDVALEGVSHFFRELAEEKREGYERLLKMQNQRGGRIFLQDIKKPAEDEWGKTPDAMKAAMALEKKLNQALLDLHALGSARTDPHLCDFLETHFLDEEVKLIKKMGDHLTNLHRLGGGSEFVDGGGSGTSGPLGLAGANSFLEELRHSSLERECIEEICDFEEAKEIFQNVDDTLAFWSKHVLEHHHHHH

B1: PC-Gla peptide (Protein C Gla domain polypeptide) (peptide)
peptide: ANSFLEELRHSSLERECIEEICDFEEAKEIFQNVDDTLAFWSKHV
modifications: ends and bridges not checked; also: labelled with a fluorescent dye for cell and in vivo assays
notes: No gamma-carboxylation of Glu residues is stated; It was labelled with a fluorescent dye for the cell and in vivo assays; also called PC-Gla domain; PC-Gla peptides
B2: TFG (TRAP-ferritin monomer fragment-PC-Gla fusion polypeptide) (other)
chain: MGGTTFLLRNASGHMSSQIRQNYSTDVEAAVNSLVNLYLQASYTYLSLGFYFDRDDVALEGVSHFFRELAEEKREGYERLLKMQNQRGGRIFLQDIKKPAEDEWGKTPDAMKAAMALEKKLNQALLDLHALGSARTDPHLCDFLETHFLDEEVKLIKKMGDHLTNLHRLGGGSEFVDGGGSGTSANSFLEELRHSSLERECIEEICDFEEAKEIFQNVDDTLAFWSKHVLEHHHHHH
notes: also called TRAP-ferritin-PC-Gla; TFG nanocage
B3: TFMG (TRAP-ferritin monomer fragment-linker-PC-Gla fusion polypeptide) (other)
chain: T2 chain
notes: also called TMFG; TFME
B4: MMP-2 (matrix metalloproteinase-2), p-aminophenylmercuric acetate-activated (protein)
chain: YNFFPRKPKWDKNQITYRIIGYTPDLDPETVDDAFARAFQVWSDVTPLRFSRIHDGEADIMINFGRWEHGDGYPFDGKDGLLAHAFAPGTGVGGDSHFDDDELWTLGEGQVVRVKYGNADGEYCKFPFLFNGKEYNSCTDTGRSDGFLWCSTTYNFEKDGKYGFCPHEALFTMGGNAEGQPCKFPFRFQGTSYDSCTTEGRTDGYRWCGTTEDYDRDKKYGFCPETAMSTVGGNSEGAPCVFPFTFLGNKYESCTSAGRSDGKMWCATTANYDDDRKWGFCPDQGYSLFLVAAHEFGHAMGLEHSQDPGALMAPIYTYTKNFRLSQDDIKGIQELYGASPDIDLGTGPTPTLGPVTPEICKQDIVFDGIAQIRGEIFFFKDRFIWRTVTPRDKPMGPLLVATFWPELPEKIDAVYEAPQEEKAVFFAGNEYWIYSASTLERGYPKPLTSLGLPPDVQRVDAAFNWSKNKKTYIFAGDKFWRYNEVKKKMDPGFPKLIADAWNAIPDNLDAVVDLQGGGHSYFFKGAYYLKLENQSLKSVKFGSIKSDWLGC
B5: soluble EPCR (endothelial protein C receptor) (receptor, UniProt Q9UNN8 18-210, looked up)
chain: SQDASDGLQRLHMLQISYFRDPYHVWYQGNASLGGHLTHVLEGPDTNTTIIQLQPLQEPESWARTQSGLQSYLLQFHGLVRLVHQERTLAFPLTIRCFLGCELPPEGSRAHVFFEVAVNGSSFVSFRPERALWQADTQVTSGVVTFTLQQLNAYNRTRYELREFLEDTCVQYVQKHISAENTKGSQTSRSYTS
notes: also called sEPCR

Experiments:
EPCR in mouse vena cava = biological target: T1, EPCR in mouse vena cava; assay: immunohistochemistry of mouse vena cava after i.v. injection of the fluorescence-labelled molecule; comparison with TFG and TFMG
Experimental: Twenty-four hours prior to CLP surgery, fluorescence labeled-PC-Gla, TFG, and TFMG (200 nM/mouse) was intravenously injected into the mice, respectively. After 24 h, mouse vena cava was enucleated and fixed in visikol for 24 h. Subsequently, vena cava was embedded in optimum cutting temperature (OCT) compound (Tissue Tek) at −80° C. Consecutive sections were incubated with anti-EPCR antibody (Santa Cruz, Calif.), anti-rabbit Alexa 488 (green), anti-CD31 antibody, and anti-rabbit Alexa 350 (blue), and observed by confocal microscopy at 63× magnification (TCS-SP5, Leica microsystem, Germany).

[1] = biological target: B5; assay: solid-phase ELISA, sEPCR coated on the plate, detection with anti-protein C polyclonal antibody; Kd(app)
Experimental: (§1) To evaluate the interaction of the wild-type PC, PC-Gla peptides, TFG, and TFMG with EPCR, 96-well flat microtiter plates were coated with soluble EPCR in 20 mM carbonate-bicarbonate buffer (pH 9.6) containing 0.02% sodium azaide, overnight at 4° C. After the plates were washed three times in TBS buffer (0.1 M NaCl, 0.02 M Tris-HCl, pH 7.4) containing 0.05% Tween 20, the plates were incubated with wild-type PC, PC-Gla peptides, TFG, and TFMG ([…]) diluted in the buffer for 1 h. After the plates were rinsed again, they were incubated with a goat anti-protein C polyclonal antibody (1:1000) for 1 h. Then, the plates were washed and incubated with rabbit anti-goat IgG (KPL, MD, 1:1000) for 1 h. After washing, the plates were incubated with 2,2′-azino-di(3-ethylbenzthiazoline-6-sulfonate) (ABTS; KPL, Gaithersburg, Md.). Colorimetric analysis was performed by measuring absorbance values at 405 nm.
(§2) First, a solid-phase ELISA was used to measure the binding affinity of TFG or TFMG toward the PC-Gla receptor, EPCR. In this assay, the efficiency of their binding to soluble EPCR (sEPCR) was compared. […] TFG and TFMG, respectively.

[2] = biological target: T2, TFMG (TRAP-ferritin monomer …)
wild type Protein C (PC) = biological target: T3, wild type Protein C (PC) (UniProt P04070 43-461); assay: solid-phase ELISA, sEPCR coated on the plate, detection with anti-protein C polyclonal antibody; Kd(app)
T3 construct: also called wild-type PC
Experimental: as §1, §2

Binder: B1
- binding result (EPCR in mouse vena cava): binds

Binder: B2
- Kd [1]: 0.0315 µM

Binder: B3
- Kd [1]: 0.0307 µM

Binder: B4
- cleavage of the linker and release of PC-Gla (HPLC, MALDI-ToF) [2]: TFMG was cleaved by MMP-2 to release PC-Gla in agreement with the calculated mass (5,518.6 Da by MALDI-ToF)

Binder: B5
- Kd (wild type Protein C (PC)): ~0.0313 µM
